According to paper PMC6596994 (Nature, 2019):
Like-named read-outs stand apart in the source and are kept apart here. Ends that are not written are not given here.

T1: human IRF-3 (residue 189–427) (human, UniProt Q14653 189-427)
T1 sequence: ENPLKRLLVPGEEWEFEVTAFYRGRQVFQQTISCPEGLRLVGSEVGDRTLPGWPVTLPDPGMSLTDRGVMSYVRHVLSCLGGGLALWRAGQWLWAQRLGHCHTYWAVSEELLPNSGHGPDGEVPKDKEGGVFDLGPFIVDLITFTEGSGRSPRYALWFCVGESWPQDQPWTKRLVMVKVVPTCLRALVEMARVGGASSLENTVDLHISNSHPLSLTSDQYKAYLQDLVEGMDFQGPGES

T2: human STING CTT (residue 342 to 379, V343W), crystallised (human, UniProt Q86WV6 342-379, V343W)
T2 chain: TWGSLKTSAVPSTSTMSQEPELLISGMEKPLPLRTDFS

B1: Human TBK1 (1–657, S172A) (domain or fragment)
chain: MQSTSNHLWLLSDILGQGATANVFRGRHKKTGDLFAIKVFNNISFLRPVDVQMREFEVLKKLNHKNIVKLFAIEEETTTRHKVLIMEFCPCGSLYTVLEEPSNAYGLPESEFLIVLRDVVGGMNHLRENGIVHRDIKPGNIMRVIGEDGQSVYKLTDFGAARELEDDEQFVALYGTEEYLHPDMYERAVLRKDHQKKYGATVDLWSIGVTFYHAATGSLPFRPFEGPRRNKEVMYKIITGKPSGAISGVQKAENGPIDWSGDMPVSCSLSRGLQVLLTPVLANILEADQEKCWGFDQFFAETSDILHRMVIHVFSLQQMTAHKIYIHSYNTATIFHELVYKQTKIISSNQELIYEGRRLVLEPGRLAQHFPKTTEENPIFVVSREPLNTIGLIYEKISLPKVHPRYDLDGDASMAKAITGVVCYACRIASTLLLYQELMRKGIRWLIELIKDDYNETVHKKTEVVITLDFCIRNIEKTVKVYEKLMKINLEAAELGEISDIHTKLLRLSSSQGTIETSLQDIDSRLSPGGSLADAWAHQEGTHPKDRNVEKLQVLLNCMTEIYYQFKKDKAERRLAYNEEQIHKFDKQKLYYHATKAMTHFTDECVKKYEAFLNKSEEWIRKMLHLRKQLLSLTNQCFDIEEEVSKYQEYTNELQET
B2: hSTING (155–379), unphosphorylated (domain or fragment)
chain: VAHGLAWSYYIGYLRLILPELQARIRTYNQHYNNLLRGAVSQRLYILLPLDCGVPDNLSMADPNIRFLDKLPQQTGDHAGIKDRVYSNSIYELLENGQRAGTCVLEYATPLQTLFAMSQYSQAGFSREDRLEQAKLFCRTLEDILADAPESQNNCRLIAYQEPADDSSFSLSQEVLRHLRQEEKEEVTVGSLKTSAVPSTSTMSQEPELLISGMEKPLPLRTDFS
modifications: biotin on the Avi tag
B3: hSTING (155–379, T376E F378M S379W), biotin-Avi-His6-SUMO fusion (domain or fragment)
chain: VAHGLAWSYYIGYLRLILPELQARIRTYNQHYNNLLRGAVSQRLYILLPLDCGVPDNLSMADPNIRFLDKLPQQTGDHAGIKDRVYSNSIYELLENGQRAGTCVLEYATPLQTLFAMSQYSQAGFSREDRLEQAKLFCRTLEDILADAPESQNNCRLIAYQEPADDSSFSLSQEVLRHLRQEEKEEVTVGSLKTSAVPSTSTMSQEPELLISGMEKPLPLREDMW
modifications: biotin on the Avi tag
B4: hSTING (155–379) L374A (domain or fragment)
chain: VAHGLAWSYYIGYLRLILPELQARIRTYNQHYNNLLRGAVSQRLYILLPLDCGVPDNLSMADPNIRFLDKLPQQTGDHAGIKDRVYSNSIYELLENGQRAGTCVLEYATPLQTLFAMSQYSQAGFSREDRLEQAKLFCRTLEDILADAPESQNNCRLIAYQEPADDSSFSLSQEVLRHLRQEEKEEVTVGSLKTSAVPSTSTMSQEPELLISGMEKPLPARTDFS
modifications: biotin on the Avi tag
B5: Mouse TBK1 (1–657, S172A) (domain or fragment)
chain: MQSTSNHLWLLSDILGQGATANVFRGRHKKTGDLYAVKVFNNISFLRPVDVQMREFEVLKKLNHKNIVKLFAIEEETTTRHKVLIMEFCPCGSLYTVLEEPSNAYGLPESEFLIVLRDVVGGMNHLRENGIVHRDIKPGNIMRVIGEDGQSVYKLTDFGAARELEDDEQFVALYGTEEYLHPDMYERAVLRKDHQKKYGATVDLWSVGVTFYHAATGSLPFRPFEGPRRNKEVMYKIITGKPSGAISGVQKAENGPIDWSGDMPLSCSLSQGLQALLTPVLANILEADQEKCWGFDQFFAETSDVLHRMVIHVFSLQHMTAHKIYIHSYNTAAVFHELVYKQTKIVSSNQELIYEGRRLVLELGRLAQHFPKTTEENPIFVTSREQLNTVGLRYEKISLPKIHPRYDLDGDASMAKAVTGVVCYACRTASTLLLYQELMRKGVRWLVELVKDDYNETVHKKTEVVITLDFCIRNIEKTVKVYEKLMKVNLEAAELGEISDIHTKLLRLSSSQGTIESSLQDISSRLSPGGLLADTWAHQEGTHPRDRNVEKLQVLLNCITEIYYQFKKDKAERRLAYNEEQIHKFDKQKLYYHATKAMSHFSEECVRKYEAFKDKSEEWMRKMLHLRKQLLSLTNQCFDIEEEVSKYQDYTNELQET
B6: hSTING (155–379, T376E) (domain or fragment)
chain: VAHGLAWSYYIGYLRLILPELQARIRTYNQHYNNLLRGAVSQRLYILLPLDCGVPDNLSMADPNIRFLDKLPQQTGDHAGIKDRVYSNSIYELLENGQRAGTCVLEYATPLQTLFAMSQYSQAGFSREDRLEQAKLFCRTLEDILADAPESQNNCRLIAYQEPADDSSFSLSQEVLRHLRQEEKEEVTVGSLKTSAVPSTSTMSQEPELLISGMEKPLPLREDFS
modifications: biotin on the Avi tag

How the values were obtained:
[1] = target: p-hSTING (155–379) (human) (UniProt Q86WV6); assay: SPR
[2] = target: B1; assay: SPR
[3] = target: B5; assay: SPR
hSTING (155–379) L372A = hSTING (155–379) L372A (human, UniProt Q86WV6 155-379, L372A, biotin on the Avi tag); assay: SPR
hSTING (155–379) P373A = hSTING (155–379) P373A (human, UniProt Q86WV6 155-379, P373A, biotin on the Avi tag); assay: SPR
[4] = target: B1; assay: SPR; remark: listed apart in the source
[5] = target: B5; assay: SPR; remark: listed apart in the source
[6] = target: T1, human IRF-3 (residue 189–427); assay: SPR
[7] = target: T2, human STING CTT (residue 342 to 379, …); assay: crystal structure
crystal structure = target: the molecule itself; assay: crystal structure

| Molecule | Kd [2] | Kd [3] | further results |
| --- | --- | --- | --- |
| human TBK1 Q581A (from UniProt Q9UHD2 1-657) (domain or fragment) | – | – | fold reduction of the binding affinity against wild type TBK1 [1]: 20 fold |
| human TBK1 K584A (from UniProt Q9UHD2 1-657) (domain or fragment) | – | – | fold reduction of the binding affinity against wild type TBK1 [1]: 20 fold |
| SGMEKPLPLRTDFS [p-hSTING (366–379)] | 35.6 µM | 30.8 µM | – |
| B1 | – | – | fold reduction of the binding affinity against wild type STING (hSTING (155–379) L372A): ~10 fold; fold reduction of the binding affinity against wild type STING (hSTING (155–379) P373A): ~10 fold |
| B2 | ~290 µM | ~170 µM | Kd [4]: ~230 µM; Kd [5]: ~260 µM |
| B3 | 1.4 µM | 1.2 µM | – |
| B4 | – | – | binding result [6]: binds |
| STSTMSQEPELLISGMEKPLPLRTDFS [p-hSTING (353–379)] | 22.6 µM | 25.1 µM | – |
| TWGSLKTSAVPSTSTMSQEPELLISGMEKPLPLRTDFS [p-hSTING (342–379)] | 16.8 µM | 15.3 µM | – |
| B5 | – | – | stoichiometry N [7]: 1 TBK1 chain per STING peptide (2:2); stoichiometry N (crystal structure): 2 |
| SGMEKPLPLREDWI (also: biotin on the Avi tag) [hSTING (366–379, T376E F378W S379I)] | – | ~59 µM | – |
| SGMEKPLPLREDWM (also: biotin on the Avi tag) [hSTING (366–379, T376E F378W 3379M)] | – | 43.9 µM | – |
| SGMEKPLPLREDWF (also: biotin on the Avi tag) [hSTING (366–379, T376E F378W S379F)] | – | 27.1 µM | – |
| SGMEKPLPLREDWE (also: biotin on the Avi tag) [hSTING (366–379, T376E F378W S379E)] | – | ~127 µM | – |
| B6 | – | ~62 µM | – |
